The target in experiment [1] is T1, full-length ECD of human IGSF11 fused to murine Fc (human, UniProt Q5DX21 23-241).
T1 construct: also called Fc-fusion IGSF11 ECD; not shown: murine Fc
T1 sequence: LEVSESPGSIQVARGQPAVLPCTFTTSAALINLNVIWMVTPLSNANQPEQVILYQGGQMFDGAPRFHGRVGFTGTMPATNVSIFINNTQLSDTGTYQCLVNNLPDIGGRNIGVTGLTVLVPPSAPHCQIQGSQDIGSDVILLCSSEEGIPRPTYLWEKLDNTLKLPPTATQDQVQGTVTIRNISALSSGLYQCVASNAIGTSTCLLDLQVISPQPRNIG
In words: IgG ELISA.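 Also: ELISA binding of IgG antibodies to plate-coated IGSF11 Fc-fusion proteins (full-length ECD, IgV or IgC2 domain), detected via HRP-labelled anti-human IgG with TMB development.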

For experiment [2], the target named is T2, IgV domain of human IGSF11 fused to murine IgG2a Fc (human, UniProt Q5DX21 23-143).
T2 construct: not shown: murine IgG2a Fc-region
T2 sequence: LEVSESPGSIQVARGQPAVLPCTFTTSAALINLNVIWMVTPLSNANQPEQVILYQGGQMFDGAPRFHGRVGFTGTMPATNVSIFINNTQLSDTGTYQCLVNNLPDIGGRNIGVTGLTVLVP
In words: IgG ELISA.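 Also: ELISA binding of IgG antibodies to plate-coated IGSF11 Fc-fusion proteins (full-length ECD, IgV or IgC2 domain), detected via HRP-labelled anti-human IgG with TMB development.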 In general terms: An ELISA detects its analyte on a solid surface through an enzyme-linked reagent.

For experiment [3], the target named is T3, ECD of murine IGSF11, recombinant biotinylated (mouse, UniProt P0C673 23-240).
T3 construct: whole entry named; also called Mouse IGSF11
T3 sequence: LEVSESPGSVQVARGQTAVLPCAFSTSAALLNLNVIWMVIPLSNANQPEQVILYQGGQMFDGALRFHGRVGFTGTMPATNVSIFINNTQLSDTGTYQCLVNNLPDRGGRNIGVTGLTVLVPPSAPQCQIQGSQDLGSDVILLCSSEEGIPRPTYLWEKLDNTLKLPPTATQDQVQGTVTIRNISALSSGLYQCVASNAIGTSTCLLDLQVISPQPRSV
In words: ELISA RFU>1.0.

For experiment [4], the target named is T4, extracellular domain (ECD) of human IGSF11 (VSIG3), recombinant (human, UniProt Q5DX21 23-241).
T4 construct: biotinylated where captured on streptavidin; tags of the reagent not always stated; also called IGSF11 (ECD domain); ECD-IGSF11
T4 sequence: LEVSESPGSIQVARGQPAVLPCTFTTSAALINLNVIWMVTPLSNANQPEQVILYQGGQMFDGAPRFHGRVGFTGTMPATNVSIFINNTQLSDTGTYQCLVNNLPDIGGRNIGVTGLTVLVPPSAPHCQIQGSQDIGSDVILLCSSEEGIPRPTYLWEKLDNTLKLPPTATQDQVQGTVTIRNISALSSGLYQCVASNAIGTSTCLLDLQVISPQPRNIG
In words: ELISA RFU 0.5-1.0.

In experiment [5] the target is T4, extracellular domain (ECD) of human …. In words: ELISA RFU 0.1-0.5.
The target of experiment [6] is T5, human IGSF11 (VSIG3) expressed on cells (human, UniProt Q5DX21 23-431).
T5 sequence: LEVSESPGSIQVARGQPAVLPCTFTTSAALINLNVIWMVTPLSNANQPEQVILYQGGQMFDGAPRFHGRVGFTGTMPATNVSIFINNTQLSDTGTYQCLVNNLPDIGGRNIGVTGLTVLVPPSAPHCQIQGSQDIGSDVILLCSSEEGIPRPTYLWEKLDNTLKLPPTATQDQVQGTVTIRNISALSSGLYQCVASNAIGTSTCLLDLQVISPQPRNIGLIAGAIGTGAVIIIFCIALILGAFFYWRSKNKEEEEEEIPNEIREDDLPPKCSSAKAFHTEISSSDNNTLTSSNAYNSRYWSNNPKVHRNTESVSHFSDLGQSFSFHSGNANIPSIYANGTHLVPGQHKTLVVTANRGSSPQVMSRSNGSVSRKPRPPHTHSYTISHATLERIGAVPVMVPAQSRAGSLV
In words: IgG1 FACS HEK-OE.

Experiment [7] concerns the target T5, human IGSF11 (VSIG3) expressed on cells. The experiment in a line: IgG1 FACS DMS 273.
Experiment [8] has as its target T6, human IGSF11 (VSIG3) ECD, His-tagged (human, UniProt Q5DX21 23-241).
T6 construct: in part bought (SinoBiological 13094-H08H); also called HIS-IGSF11; IGSF11-HIS; not shown: His tag
T6 sequence: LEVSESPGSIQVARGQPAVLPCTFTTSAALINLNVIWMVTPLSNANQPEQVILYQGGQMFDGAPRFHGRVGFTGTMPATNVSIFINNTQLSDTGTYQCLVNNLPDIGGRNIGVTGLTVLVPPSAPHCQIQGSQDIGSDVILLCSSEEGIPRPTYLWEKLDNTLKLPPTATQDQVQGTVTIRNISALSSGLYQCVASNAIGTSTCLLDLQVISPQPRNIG
The experiment in a line: IgG1 ELISA EC50 <0.02 nM.

The target of experiment [9] is T5, human IGSF11 (VSIG3) expressed on cells. The experiment in a line: FACS, DMS 273 cells with scrambled control siRNA (SC). For orientation: Flow cytometry measures light scatter and fluorescence of single cells or particles in a stream.
The target is the same in experiment [10]. The experiment in a line: FACS, M579-A2-luc cells with scrambled control siRNA (SC).
The target is the same in experiment [11]. The experiment in a line: FACS, DMS 273 cells with IGSF11 siRNA (KD, knock-down control).
Experiment [12] shares this target. The experiment in a line: FACS, M579-A2-luc cells with IGSF11 siRNA (KD, knock-down control).
The target of experiment [13] is T4, extracellular domain (ECD) of human …. In words: SPR. In general terms: In SPR one partner is held on a chip, and binding of the other changes the refractive index at the surface.
Experiment [14] concerns the target T7, ECD of cynomolgus monkey IGSF11, recombinant biotinylated (cynomolgus monkey, UniProt Q5DX21 23-241 (human entry)).
T7 construct: whole entry named
T7 chain: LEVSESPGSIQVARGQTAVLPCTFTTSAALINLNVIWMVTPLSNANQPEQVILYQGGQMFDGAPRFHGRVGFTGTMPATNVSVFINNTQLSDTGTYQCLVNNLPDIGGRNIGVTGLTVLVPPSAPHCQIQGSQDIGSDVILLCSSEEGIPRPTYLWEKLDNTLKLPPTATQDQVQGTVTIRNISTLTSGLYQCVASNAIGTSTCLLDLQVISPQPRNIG
The experiment in a line: Fab ELISA.
Protocol: In order to identify IGSF11-specific binding ABPs, monoclonal Fabs expressed from E. coli were generated from the enriched set of anti-IGFS11 antibody-expressing phage. After bacterial lysis, the Fabs were tested for their binding properties and cross-reactivity profile on recombinant ECD-IGSF11 (human, mouse and cynomolgus monkey) by standard ELISA. Briefly, biotinylated recombinant ECD-IGSF11 from human, mouse, or cynomolgus monkey were immobilized at 2 ug/mL on a streptavidin-coated 384-well Maxisorp plate. The surface was blocked with 2% (w/v) skim milk powder in PBST. After three wash cycles with PBST, a bacterial lysate of each of the anti-IGSF11 Fabs in 2% (w/v) skim milk powder was applied to the immobilized IGSF11 and incubated for 1 h. After removing all unbound Fab by 3 wash cycles with PBST, bound Fab antibodies were detected with a goat anti-human Fab antibody conjugated with horseradish peroxidase. After three wash cycles with PBST the ELISA was developed with TMB substrate.

By EC50 is commonly meant the concentration that produces a half-maximal response. In general, Kd refers to the free concentration of one partner at which half of the binding sites on the other are occupied at equilibrium, for simple one-to-one binding.

Bounds are passed on as bounds.

B1: C-026 (IgG1 format) (antibody, V domains shown)
VH: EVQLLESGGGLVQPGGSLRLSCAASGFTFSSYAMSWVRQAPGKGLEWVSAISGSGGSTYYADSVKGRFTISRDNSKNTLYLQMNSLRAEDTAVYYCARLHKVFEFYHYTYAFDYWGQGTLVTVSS
VL: ASVLTQPPSVSAAPGQKVTISCSGSSSNIGNNYVSWYQQLPGTAPKLLIYDNNKRPSGIPDRFSGSKSGTSATLGITGLQAEDEADYYCASYSSETSGWVFGGGTKLTVL
For the molecule B1, the EC50 is 1 to 20 nM in [1] and less than 1 nM in [2].

B2: C-009 (IgG1 format) (antibody, V domains shown)
VH: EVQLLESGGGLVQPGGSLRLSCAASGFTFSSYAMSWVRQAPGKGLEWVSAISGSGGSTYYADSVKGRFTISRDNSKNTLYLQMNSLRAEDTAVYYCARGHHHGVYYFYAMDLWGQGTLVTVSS
VL: SYELTQPPSVSVSPGQTASITCSGDKLGDKYASWYQQKPGQSPVLVIYQDSKRPSGIPERFSGSNSGNTATLTISGTQAEDEADYYCQSYSGSSTLHVFGGGTKLTVL
With B2, the EC50 in [1] was 1 to 20 nM; in experiment [2] it was less than 1 nM.

B3: C-024 (IgG1 format) (antibody, V domains shown)
VH: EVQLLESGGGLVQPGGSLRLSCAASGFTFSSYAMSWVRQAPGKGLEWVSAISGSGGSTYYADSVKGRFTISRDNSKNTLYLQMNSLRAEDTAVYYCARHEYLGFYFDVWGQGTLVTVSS
VL: SYELTQPPSVSVSPGQTASITCSGDKLGDKYASWYQQKPGQSPVLVIYQDSKRPSGIPERFSGSNSGNTATLTISGTQAEDEADYYCLASHRLTLNYVFGGGTKLTVL
Regarding B3, the EC50 in experiment [1] and in [2] was 1 to 20 nM throughout.

B4: A-022 (scFv format) (scFv, V domains shown)
VH: EVQLLESGPGLVKPSQTLSLTCTVSGGSISSGGYYWSWIRQHPGKGLEWIGYIYYSGSTYYNPSLKSRVTISVDTSKNQFSLKLSSVTAADTAVYYCARASRSTDYYFDYWGQGTLVTVSS
VL: QPGLTQPPSMSYGLGQTATLTCTGNRNNIGDQGAAWLQQHQGHPPKLLSYRNNNGPSGISERLSASRSGNTASLTISGLQPEDEADYYCSAWDSSLRAWVFGGGTKLTVL
notes: scFv
In the case of B4, the “ELISA binding signal (RFU)” value is more than 1 rfu in [3] and 0.5 to 1 rfu in experiment [4].

B5: A-035 (scFv format) (scFv, V domains shown)
VH: QVQLVQSGAEVKKPGASVKVSCKASGYTFTGYYMHWVRQAPGQGLEWMGWINPNSGNTGYAQKFQGRVTMTRNTSISTAYMELSSLRSEDTAVYYCARGRLERGYWYFDLWGRGTLVTVSS
VL: NFMLTQPHSVSESPGRTVTISCTRSSGSITSNYVQWYQQRPGSAPTILIYEDKERPSEVPDRFSGSIDISSNSASLTISGLKTEDEADYYCQSYGGTSQGVLFGGGTKVTVL
notes: scFv
With B5, the results for the “ELISA binding signal (RFU)” value in [3] and in experiment [4] were more than 1 rfu and 0.5 to 1 rfu, respectively.

B6: C-008 (IgG1 format) (antibody, V domains shown)
VH: EVQLLESGGGLVQPGGSLRLSCAASGFTFSSYAMSWVRQAPGKGLEWVSAISGSGGSTYYADSVKGRFTISRDNSKNTLYLQMNSLRAEDTAVYYCTTDNGHNRDWGQGTLVTVSS
VL: ASVLTQPPSVSAAPGQKVTISCSGSSSNIGNNYVSWYQQLPGTAPKLLIYDNNKRPSGIPDRFSGSKSGTSATLGITGLQAEDEADYYCGTWTRSSGVFGGGTKLTVL
Turning to B6, the EC50 in [1] and in experiment [2] was less than 1 nM in each case.

B7: A-011 (scFv format) (scFv, V domains shown)
VH: QVQLVESGGGVVQPGRSLRLSCAASGFTFSSYAMHWVRQAPGKGLEWVAVISYDGSNKYYADSVKGRFTISRDNSKNTLYLQMNSLRAEDTAVYYCAEGGALNYYGMDVWGQGTTVTVSS
VL: SSELTQDPGVSVALGQTVRITCQGDSLRHFYATWYQQKPGQAPILVIYGKNNRPSGIPDRFSGSSSEDTASLTITGAQAEDEADYYCQSRDPRNNHLIFGGGTKLIVL
notes: scFv
As to B7, the “ELISA binding signal (RFU)” value is more than 1 rfu in experiment [3] and 0.1 to 0.5 rfu in experiment [5].

B8: A-004 (scFv format) (scFv, V domains shown)
VH: EVQLVESGGGLVKPGGSLRLSCAASGFTFSSYSMNWVRQAPGKGLEWVSSISSSSSYIYYADSVKGRFTISRDNAKNSLYLQMNSLRAEDTAVYYCARGQLLWFGESALIDAFDIWGQGTMVTVSS
VL: EIVLTQSPSSLSASVGDRVTITCRASQSISSYLNWYQLKPGKAPKLLIYAASILQSGVPSRFSGSGSGTDFTLTISSLQPEDFAAYYCQQSYSTPRTFGQGTKLEIK
notes: scFv
In the case of B8, the “ELISA binding signal (RFU)” value is more than 1 rfu in experiment [3] and 0.5 to 1 rfu in experiment [4].

B9: A-007 (IgG1 format) (antibody, V domains shown)
VH: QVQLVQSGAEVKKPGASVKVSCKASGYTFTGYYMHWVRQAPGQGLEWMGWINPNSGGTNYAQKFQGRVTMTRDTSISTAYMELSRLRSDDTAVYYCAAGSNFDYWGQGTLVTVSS
VL: QSALTQPASVSGSPGQSITIACTGSSSDIGSFSYVSWYQQRPGKAPTLIIYGVNNRPLGVSRRFSGSKSGNTASLSISGLQAEDEADYYCSSYTRRSTVIFGGGTKLTVL
notes: human IgG1 format
As for B9, the EC50 in [6] was less than 10 nM; in experiment [7], less than 10 nM; in [8], less than 0.02 nM. In addition, the “% binding (FACS heat-map)” value in [9] stood at 82.3%; in experiment [10] it was 65.6%; in experiment [11] it was 34.2%; in [12], 9.15%.

B10: C-025 (IgG1 format) (antibody, V domains shown)
VH: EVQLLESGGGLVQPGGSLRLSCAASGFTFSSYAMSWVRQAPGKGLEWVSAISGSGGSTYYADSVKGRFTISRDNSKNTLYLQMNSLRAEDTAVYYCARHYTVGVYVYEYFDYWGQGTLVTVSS
VL: SYELTQPPSVSVSPGQTASITCSGDKLGDKYASWYQQKPGQSPVLVIYQDSKRPSGIPERFSGSNSGNTATLTISGTQAEDEADYYCQSYATAGFVFGGGTKLTVL
On to B10, for which the results for the EC50 in [1] and in experiment [2] were 1 to 20 nM and less than 1 nM, respectively.

B11: A-015 (IgG1 format) (antibody, V domains shown)
VH: not shown
VL: QPVLTQSPSASASLGASVKLTCTLSSGHTNYAIAWRQQQPGKAPRYLMLLNSDGSHTRGGGIPDRFSGSSSGAERYLTISSLQSEDEADYYCMIWHNNAWVFGGGTKLAVL
notes: human IgG1 format
For B11, the “% binding (FACS heat-map)” value in experiment [9] is 5.97%; in experiment [10], 1.17%; in experiment [11] it was 1.6%; in [12], 1.3%.

B12: A-013 (IgG1 format) (antibody, V domains shown)
VH: EVQLVESGGGLIQPGGSLRLSCAASGFTVSSNYMSWVRQAPGKGLEWVSVIYSGGSTYYADSVKGRFTISRDNSKNTLYLQMNSLRAEDTAVYYCARGNPYYYGDLQVNFDYWGQGTLVTVSS
VL: QAVVTQEPSLTVSPGGTVTLTCASSTGAVTSAYYPNWFQQKPGQAPRALIYSTSNKHSWTPARFSGSLLGGKAALTLSGVQPEDEADYYCLLYYGGAWVFGGGTKLTVL
notes: human IgG1 format
Take B12: the Kd in experiment [13] fell in the range of 100 to 250 nM. Moreover, the EC50 in experiment [6] was 10 to 50 nM; in experiment [7], more than 50 nM; in experiment [8], less than 0.02 nM.

B13: C-006 (Fab format) (Fab, V domains shown)
VH: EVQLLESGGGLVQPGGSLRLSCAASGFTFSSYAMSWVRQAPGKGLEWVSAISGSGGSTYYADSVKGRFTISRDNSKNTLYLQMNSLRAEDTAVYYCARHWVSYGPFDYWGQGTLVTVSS
VL: DIQMTQSPSSLSASVGDRVTITCRASQSISSYLNWYQQKPGKAPKLLIYAASSLQSGVPSRFSGSGSGTDFTLTISSLQPEDFATYYCQQSHQSPPITFGQGTKVEIK
notes: Fab from E. coli lysate
For B13, in [14], the A450 was less than 1.

B14: C-012 (Fab format) (Fab, V domains shown)
VH: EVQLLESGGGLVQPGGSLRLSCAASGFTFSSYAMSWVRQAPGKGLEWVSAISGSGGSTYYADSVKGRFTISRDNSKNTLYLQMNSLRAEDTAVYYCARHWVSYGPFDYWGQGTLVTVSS
VL: DIQMTQSPSSLSASVGDRVTITCRASQSISSYLNWYQQKPGKAPKLLIYAASSLQSGVPSRFSGSGSGTDFTLTISSLQPEDFATYYCQQSHQSPPITFGQGTKVEIK
notes: Fab from E. coli lysate
On to B14, for which the A450 in experiment [14] is less than 1.

The record behind these values is US20220372138A1 (IOMX THERAPEUTICS, published 2022).
